From PMC9606253 come the findings set out here.

The target in assay [1] is SS18L1 (mouse (endogenous in mouse brain)) (UniProt Q8BW22). Briefly: co-IP; three successive immunodepletions of adult Brwd1^FLAG-HA brain nuclear extract with antibodies to SMARCA4 or SS18L1 or IgG; signal left in the final flow-through by blot densitometry, normalised to IgG.
Assay [2] has as its target SMARCA4 (mouse (endogenous in mouse brain)) (UniProt Q3TKT4). The assay is described as above.
In assay [3] the target is SS18 (mouse (endogenous in mouse brain)) (UniProt Q62280). The assay can be described thus: co-IP; three successive immunodepletions of E17.5 Brwd1^FLAG-HA brain nuclear extract with antibodies to SMARCA4, SS18 or SS18L1 or IgG; signal left in the final flow-through by blot densitometry, normalised to IgG.
Assay [4] addresses SMARCA4 (mouse (endogenous in mouse brain)) (UniProt Q3TKT4). The assay can be described thus: co-IP; brain nuclear extract partially denatured with 0, 0.25, 0.5, 1, 2 or 4 M urea (15 min, room temperature), dialysed, then IP with anti-SMARCA4 (BRG1 H-10) or mouse IgG; bound protein normalised to immunoprecipitated SMARCA4 (n = 3).

Chain of BRWD1-FLAG-HA, Q921C3 1-2304 (natural protein) (Q921C3 whole entry): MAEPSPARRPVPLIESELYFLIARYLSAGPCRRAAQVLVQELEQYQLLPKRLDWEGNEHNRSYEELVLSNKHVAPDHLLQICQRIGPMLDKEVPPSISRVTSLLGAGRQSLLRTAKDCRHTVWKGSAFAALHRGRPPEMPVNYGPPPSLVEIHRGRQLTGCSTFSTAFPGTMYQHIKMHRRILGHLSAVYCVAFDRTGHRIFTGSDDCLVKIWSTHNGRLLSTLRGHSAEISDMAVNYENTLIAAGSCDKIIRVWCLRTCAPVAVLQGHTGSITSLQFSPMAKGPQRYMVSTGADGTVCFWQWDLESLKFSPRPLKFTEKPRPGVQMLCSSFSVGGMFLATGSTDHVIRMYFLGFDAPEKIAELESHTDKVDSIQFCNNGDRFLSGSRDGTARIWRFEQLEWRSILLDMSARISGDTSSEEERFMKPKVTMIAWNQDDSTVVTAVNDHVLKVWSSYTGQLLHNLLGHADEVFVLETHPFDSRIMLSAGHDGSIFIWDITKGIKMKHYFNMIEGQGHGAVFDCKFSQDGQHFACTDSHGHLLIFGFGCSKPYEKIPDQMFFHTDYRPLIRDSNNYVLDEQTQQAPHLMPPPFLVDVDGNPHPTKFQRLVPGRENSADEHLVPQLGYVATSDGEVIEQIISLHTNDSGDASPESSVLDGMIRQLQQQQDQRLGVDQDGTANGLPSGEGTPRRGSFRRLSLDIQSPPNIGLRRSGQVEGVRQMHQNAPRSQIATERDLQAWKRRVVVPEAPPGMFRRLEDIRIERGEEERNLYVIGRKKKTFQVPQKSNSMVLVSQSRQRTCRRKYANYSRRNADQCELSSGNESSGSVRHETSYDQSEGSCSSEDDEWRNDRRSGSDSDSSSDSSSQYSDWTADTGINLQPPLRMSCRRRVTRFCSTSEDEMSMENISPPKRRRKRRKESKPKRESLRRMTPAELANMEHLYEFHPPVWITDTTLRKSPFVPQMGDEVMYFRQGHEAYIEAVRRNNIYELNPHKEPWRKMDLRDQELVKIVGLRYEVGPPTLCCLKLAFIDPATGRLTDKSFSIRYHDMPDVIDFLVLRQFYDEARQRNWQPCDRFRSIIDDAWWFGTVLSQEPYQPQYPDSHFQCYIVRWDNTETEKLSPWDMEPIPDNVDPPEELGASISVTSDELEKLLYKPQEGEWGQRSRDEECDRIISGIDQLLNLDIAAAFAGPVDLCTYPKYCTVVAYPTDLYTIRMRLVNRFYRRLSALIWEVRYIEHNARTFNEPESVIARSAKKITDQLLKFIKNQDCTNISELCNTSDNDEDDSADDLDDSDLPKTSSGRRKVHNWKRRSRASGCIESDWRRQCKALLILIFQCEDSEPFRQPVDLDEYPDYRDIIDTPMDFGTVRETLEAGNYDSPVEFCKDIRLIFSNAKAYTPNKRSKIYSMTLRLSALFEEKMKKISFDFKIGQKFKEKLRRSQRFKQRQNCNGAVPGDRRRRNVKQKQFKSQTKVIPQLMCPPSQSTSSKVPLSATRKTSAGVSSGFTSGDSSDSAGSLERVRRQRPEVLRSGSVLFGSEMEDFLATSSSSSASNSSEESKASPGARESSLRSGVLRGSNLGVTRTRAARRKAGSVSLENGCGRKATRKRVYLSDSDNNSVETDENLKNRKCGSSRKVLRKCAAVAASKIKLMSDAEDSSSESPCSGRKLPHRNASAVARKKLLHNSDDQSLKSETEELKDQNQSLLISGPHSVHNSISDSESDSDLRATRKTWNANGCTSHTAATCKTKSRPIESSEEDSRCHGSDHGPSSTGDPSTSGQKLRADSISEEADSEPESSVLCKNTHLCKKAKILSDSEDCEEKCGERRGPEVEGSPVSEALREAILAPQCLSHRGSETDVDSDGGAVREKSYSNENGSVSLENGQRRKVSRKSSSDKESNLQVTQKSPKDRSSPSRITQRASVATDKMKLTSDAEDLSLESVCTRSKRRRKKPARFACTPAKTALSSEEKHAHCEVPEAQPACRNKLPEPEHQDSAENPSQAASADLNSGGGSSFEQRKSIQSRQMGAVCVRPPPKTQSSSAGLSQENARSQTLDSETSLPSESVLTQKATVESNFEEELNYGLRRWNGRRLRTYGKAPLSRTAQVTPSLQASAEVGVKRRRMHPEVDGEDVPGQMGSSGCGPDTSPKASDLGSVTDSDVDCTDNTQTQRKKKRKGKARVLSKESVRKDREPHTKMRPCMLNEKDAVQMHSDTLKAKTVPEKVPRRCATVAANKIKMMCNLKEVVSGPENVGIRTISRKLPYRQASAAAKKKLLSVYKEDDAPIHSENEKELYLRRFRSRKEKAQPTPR
Chain of SMARCA4 (mouse (endogenous in mouse brain)) (Q3TKT4 whole entry): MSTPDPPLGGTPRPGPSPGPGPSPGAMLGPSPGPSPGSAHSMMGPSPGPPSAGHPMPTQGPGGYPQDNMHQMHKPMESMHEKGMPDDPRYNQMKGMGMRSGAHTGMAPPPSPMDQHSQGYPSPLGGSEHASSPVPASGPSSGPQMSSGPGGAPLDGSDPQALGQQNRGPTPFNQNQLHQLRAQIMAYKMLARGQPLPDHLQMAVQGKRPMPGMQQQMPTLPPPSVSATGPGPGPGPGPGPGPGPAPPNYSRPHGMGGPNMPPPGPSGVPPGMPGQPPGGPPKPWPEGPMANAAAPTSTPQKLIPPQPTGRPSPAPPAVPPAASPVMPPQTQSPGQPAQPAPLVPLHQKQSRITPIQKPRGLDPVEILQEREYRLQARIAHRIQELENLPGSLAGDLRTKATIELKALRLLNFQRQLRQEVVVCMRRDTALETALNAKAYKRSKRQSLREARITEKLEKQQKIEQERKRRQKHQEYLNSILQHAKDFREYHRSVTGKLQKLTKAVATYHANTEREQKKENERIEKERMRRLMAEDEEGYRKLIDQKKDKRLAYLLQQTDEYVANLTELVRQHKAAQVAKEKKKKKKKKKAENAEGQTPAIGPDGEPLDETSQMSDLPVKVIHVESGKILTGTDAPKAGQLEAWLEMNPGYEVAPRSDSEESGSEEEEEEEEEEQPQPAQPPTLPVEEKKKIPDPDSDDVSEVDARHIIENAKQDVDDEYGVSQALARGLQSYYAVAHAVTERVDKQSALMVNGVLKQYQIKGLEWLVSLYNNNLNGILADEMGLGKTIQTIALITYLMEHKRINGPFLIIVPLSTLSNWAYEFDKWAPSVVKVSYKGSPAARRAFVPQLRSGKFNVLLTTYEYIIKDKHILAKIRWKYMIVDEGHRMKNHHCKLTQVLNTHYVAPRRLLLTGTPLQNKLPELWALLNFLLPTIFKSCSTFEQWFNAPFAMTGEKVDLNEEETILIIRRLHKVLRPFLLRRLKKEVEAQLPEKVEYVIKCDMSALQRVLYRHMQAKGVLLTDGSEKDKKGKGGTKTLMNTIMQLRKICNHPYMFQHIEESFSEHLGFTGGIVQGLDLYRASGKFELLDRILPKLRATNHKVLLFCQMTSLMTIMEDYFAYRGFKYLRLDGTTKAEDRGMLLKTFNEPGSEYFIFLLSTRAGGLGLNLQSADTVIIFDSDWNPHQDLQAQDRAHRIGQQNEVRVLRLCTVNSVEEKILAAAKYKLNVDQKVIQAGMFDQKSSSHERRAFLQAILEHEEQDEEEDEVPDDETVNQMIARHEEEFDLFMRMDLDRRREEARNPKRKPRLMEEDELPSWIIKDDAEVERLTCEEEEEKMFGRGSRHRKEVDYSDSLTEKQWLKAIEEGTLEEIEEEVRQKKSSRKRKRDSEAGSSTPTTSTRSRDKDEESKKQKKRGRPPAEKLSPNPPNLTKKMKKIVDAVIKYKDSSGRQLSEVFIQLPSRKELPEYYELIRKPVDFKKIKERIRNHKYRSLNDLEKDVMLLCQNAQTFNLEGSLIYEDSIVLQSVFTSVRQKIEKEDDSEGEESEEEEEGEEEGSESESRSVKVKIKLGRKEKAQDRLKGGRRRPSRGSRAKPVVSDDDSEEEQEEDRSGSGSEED
Chain of SS18L1 (mouse (endogenous in mouse brain)) (Q8BW22 whole entry): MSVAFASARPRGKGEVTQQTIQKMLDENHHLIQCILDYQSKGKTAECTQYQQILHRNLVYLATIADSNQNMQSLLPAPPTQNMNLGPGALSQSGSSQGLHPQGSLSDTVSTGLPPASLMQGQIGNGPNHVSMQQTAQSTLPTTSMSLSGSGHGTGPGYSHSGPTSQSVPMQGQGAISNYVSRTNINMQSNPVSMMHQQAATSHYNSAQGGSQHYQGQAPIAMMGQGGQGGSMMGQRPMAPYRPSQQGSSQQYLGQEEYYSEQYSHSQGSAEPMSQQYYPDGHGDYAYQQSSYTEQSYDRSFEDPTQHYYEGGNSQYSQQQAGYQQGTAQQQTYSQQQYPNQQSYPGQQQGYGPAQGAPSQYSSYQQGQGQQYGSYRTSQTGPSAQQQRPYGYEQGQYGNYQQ
Chain of SS18 (mouse (endogenous in mouse brain)) (Q62280 whole entry): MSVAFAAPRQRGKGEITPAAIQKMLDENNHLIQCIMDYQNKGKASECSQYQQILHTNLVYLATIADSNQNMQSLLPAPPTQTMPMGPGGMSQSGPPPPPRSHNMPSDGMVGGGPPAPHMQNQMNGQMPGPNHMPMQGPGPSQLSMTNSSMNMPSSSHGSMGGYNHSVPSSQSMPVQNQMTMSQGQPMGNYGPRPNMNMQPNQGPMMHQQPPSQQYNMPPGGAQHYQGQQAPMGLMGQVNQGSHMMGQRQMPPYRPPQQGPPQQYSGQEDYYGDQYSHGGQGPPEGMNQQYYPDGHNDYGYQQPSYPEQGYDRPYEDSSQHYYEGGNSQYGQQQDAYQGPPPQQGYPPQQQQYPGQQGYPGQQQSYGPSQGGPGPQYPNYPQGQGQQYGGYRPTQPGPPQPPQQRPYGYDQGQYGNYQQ

“BRWD1-FLAG-HA, Q921C3 1-2304 (natural protein)”: the percent co-depleted in assay [1], in assay [2] and in assay [3] was 20% in each case. Besides, the percent destabilized in 0.5 M urea in assay [4] was determined as 60%. The substance further came in with a percent remaining bound through 4 M urea in assay [4] of 40%.
